T1: human PRLR (Biacore antigen) (human, UniProt P16471 25-234, limits assumed)
T1 construct: The construct injected over captured antibody is not described (a soluble form is likely); also called huPRLR
T1 sequence: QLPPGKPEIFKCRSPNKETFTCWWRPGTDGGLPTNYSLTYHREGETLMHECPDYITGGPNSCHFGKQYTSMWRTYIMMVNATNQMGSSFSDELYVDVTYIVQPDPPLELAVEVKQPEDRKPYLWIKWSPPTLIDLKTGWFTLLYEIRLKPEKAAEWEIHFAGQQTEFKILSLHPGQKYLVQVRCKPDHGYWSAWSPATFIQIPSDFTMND

T2: human PRLR on cells (human, UniProt P16471 25-622)
T2 sequence: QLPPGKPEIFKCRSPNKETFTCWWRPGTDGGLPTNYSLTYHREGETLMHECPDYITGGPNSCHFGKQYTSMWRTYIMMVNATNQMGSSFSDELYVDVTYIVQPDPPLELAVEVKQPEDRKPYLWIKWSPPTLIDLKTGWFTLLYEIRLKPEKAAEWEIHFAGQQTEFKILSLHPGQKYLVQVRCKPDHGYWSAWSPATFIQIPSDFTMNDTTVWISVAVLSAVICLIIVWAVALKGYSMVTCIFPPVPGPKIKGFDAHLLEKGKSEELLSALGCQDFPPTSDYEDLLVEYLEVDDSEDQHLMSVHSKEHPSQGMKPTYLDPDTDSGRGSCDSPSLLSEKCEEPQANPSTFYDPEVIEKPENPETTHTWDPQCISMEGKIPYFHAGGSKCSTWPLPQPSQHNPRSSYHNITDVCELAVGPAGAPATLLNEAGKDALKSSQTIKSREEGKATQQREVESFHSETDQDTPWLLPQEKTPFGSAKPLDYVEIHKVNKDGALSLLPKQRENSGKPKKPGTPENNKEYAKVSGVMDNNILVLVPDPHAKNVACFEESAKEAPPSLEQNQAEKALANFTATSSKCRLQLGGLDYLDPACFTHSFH

T3: human PRLR ECD-Fc fusion protein (human, UniProt P16471 25-233)
T3 construct: not shown: Fc region (captured by goat anti-human Fc)
T3 sequence: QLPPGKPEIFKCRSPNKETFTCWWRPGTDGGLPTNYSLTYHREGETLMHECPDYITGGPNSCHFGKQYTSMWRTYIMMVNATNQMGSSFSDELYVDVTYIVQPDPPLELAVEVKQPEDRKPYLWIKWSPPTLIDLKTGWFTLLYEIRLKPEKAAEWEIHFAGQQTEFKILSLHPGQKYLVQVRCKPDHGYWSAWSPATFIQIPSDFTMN

T4: cyno PRLR ECD-his6 protein (cyno)
T4 chain: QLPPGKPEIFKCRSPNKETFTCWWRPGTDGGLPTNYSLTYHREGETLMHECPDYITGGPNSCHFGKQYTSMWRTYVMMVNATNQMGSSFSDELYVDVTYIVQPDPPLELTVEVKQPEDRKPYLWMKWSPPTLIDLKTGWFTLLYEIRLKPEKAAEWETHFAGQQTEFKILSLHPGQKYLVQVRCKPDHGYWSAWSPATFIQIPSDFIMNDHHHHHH

B1: Ab19 (antibody, human IgG1, kappa, V domains shown)
VH: EVQLVQSGAEVKKPGSSVKVSCKASGYTFTTYWMHWVRQAPGQGLEWIGEIDPSDSYSNYNQKFKDRATLTVDKSTSTAYMELSSLRSEDTAVYYCARNGGLGPAWFSYWGQGTLVTVSS
VL: DIQMTQSPSSVSASVGDRVTITCKASQYVGTAVAWYQQKPGKSPKLLIYSASNRYTGVPSRFSDSGSGTDFTLTISSLQPEDFATYFCQQYSSYPWTFGGGTKVEIKR
notes: humanized from Ab6; G1; also called Ab1 HC.1a and Ab1 LC.1a
B2: Ab21 (antibody, human IgG1, kappa, V domains shown)
VH: EVQLVQSGAEVKKPGSSVKVSCKASGYTFTTYWMHWVRQAPGQGLEWIGEIDPSDSYSNYNQKFKDRATLTVDKSTSTAYMELSSLRSEDTAVYYCARNGGLGPAWFSYWGQGTLVTVSS
VL: EIVMTQSPATLSVSPGERATLSCKASQYVGTAVAWYQQKPGQSPRLLIYSASNRYTGVPARFSDSGSGTEFTLTISSLQSEDFAVYFCQQYSSYPWTFGGGTKVEIKR
notes: humanized from Ab6; G1; also called Ab1 HC.1a and Ab1 LC.2a

What was measured:
[1] = target: T1, human PRLR (Biacore antigen); assay: SPR simultaneous binding; PRLR held by surface mAb chAb5
Experimental: (§1) Running buffer was HBS-EP+ (10 mM Hepes, pH7.4, 150 mM NaCl, 3 mM EDTA, 0.05% surfactant). Assay was performed at 12° C. using Biacore T200 and CM5 sensor chips with anti-human IgG (Pierce) amine-coupled in all 4 flow cells to ˜2000 RU.
(§2) Separate test mAbs were captured in flowcells 2, 3 & 4 (flowcell 1 was reference, no test mAb). All 4 flowcells were then blocked by injection with isotype control mAb at 50 ug/ml. All 4 flowcells were then injected with antigen or buffer only (buffer only is for double referencing, done for each mAb pair individually). All 4 flowcells were then injected with 2nd test mAb at 10 ug/ml. All 4 flowcells were then regenerated with glycine, pH1.5.

[2] = target: T2, human PRLR on cells; assay: cell-based or functional assay
[3] = target: cyno PRLR on Baf3-cyPRLR cells (cyno); assay: cell-based or functional assay
[4] = target: T1, human PRLR (Biacore antigen); assay: SPR simultaneous binding; PRLR held by surface mAb chAb8
Experimental: as §1, §2

[5] = target: T1, human PRLR (Biacore antigen); assay: SPR simultaneous binding; PRLR held by surface mAb Ab48
Experimental: as §1, §2

[6] = target: T1, human PRLR (Biacore antigen); assay: SPR simultaneous binding; PRLR held by surface mAb LFA102
Experimental: as §1, §2

[7] = target: T1, human PRLR (Biacore antigen); assay: SPR simultaneous binding; PRLR held by surface mAb chAb7
Experimental: as §1, §2

[8] = target: T3, human PRLR ECD-Fc fusion protein; assay: ELISA on ECD
Summary of the method: (§3)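 PRLR was captured on blocked plates for 1 h, then incubated 1 h with serial antibody dilutions in PBS pH 7.4/0.05% Tween 20 containing 10% Superblock. HRP secondary and TMB gave signal read at 450 nm, and EC50 came from curve fitting.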

[9] = target: T4, cyno PRLR ECD-his6 protein; assay: ELISA on ECD
Summary of the method: as §3

[10] = target: T1, human PRLR (Biacore antigen); assay: SPR simultaneous binding; PRLR held by surface mAb Ab49
Experimental: as §1, §2

[11] = target: T1, human PRLR (Biacore antigen); assay: SPR simultaneous binding; PRLR held by surface mAb Ab40
Experimental: as §1, §2

Binder | solution mAb binding, % of PRLR binding [1] | Baf3-hPRLR proliferation IC50 [2] | Baf3-cyPRLR proliferation IC50 [3] | solution mAb binding, % of PRLR binding [4] | solution mAb binding, % of PRLR binding [5] | solution mAb binding, % of PRLR binding [6] | solution mAb binding, % of PRLR binding [7] | EC50 [8] | EC50 [9] | solution mAb binding, % of PRLR binding [10] | solution mAb binding, % of PRLR binding [11]
B1 | 0% | 0.12 µg/mL | 0.13 µg/mL | 0% | 0% | 122% | 0% | 61.4 pM | 57.5 pM | 1% | -2%
B2 | -1% | 0.15 µg/mL | 0.15 µg/mL | 0% | 1% | 104% | 0% | 72.8 pM | 53.8 pM | 0% | -2%
